According to PMC6813122, “Characterization of a highly stable α-galactosidase from thermophilic Rasamsonia emersonii heterologously expressed in a modified Pichia pastoris expression system” (Microbial Cell Factories, 2019):
Values belong to the molecule of their own block, whether it stands above or below them.

How the values were obtained:
[1] = target: ReGal2, GH27 α-galactosidase from Rasamsonia emersonii (Rasamsonia emersonii); experiment: SEC; gel filtration of purified ReGal2, Superdex 200 Increase 10/300 GL, 10 mM Tris-HCl pH 8.0 plus 100 mM NaCl, calibrated with molecular weight standards; self-association, oligomeric state of the native enzyme
purified protein = substrate: O=[N+]([O-])c1ccc(O[C@H]2O[C@H](CO)[C@H](O)[C@H](O)[C@H]2O)cc1; experiment: purified protein; conditions: 80 °C, 20 mM HAc-NaAc buffer pH 4.8 (general assay buffer), 0.25-2.0 mM pNPGal

stoichiometry N [1]: 6
Molecule: ReGal2, GH27 α-galactosidase from Rasamsonia emersonii (enzyme)

B1: ReGal2 (Rasamsonia emersonii CBS 393.64) (protein)
chain: LDNGLAITPQMGWNTWNSFGCSLNETVILDAAEKLVSLGFKDLGYEYVVLDDCWSAGRNASGYLVPDPAKFPNGIDGLAEKIHALGLKIGIYSSAGTMTCARYAGSLGYEEKDAALWASWGIDYLKYDNCYNQGQEGTPKLSYDRYNAMGQALNKTGRPILYSLCNWGVDGPWNFASTIANSWRTSGDLLNTWDRDDANCPCSELEGLDCKTPGYKCSILNVINKAVYYPSKAFPGAWNDLDMLQVGNGGLTDDEAVAHMSLWAAFKSPLLMTNVLSNIDPPTLSILQNPAVLAVSQDPVGSSVNRIWRYYVDDVDANGYGEIQLFSGGLAGGDQLVLLLNAGSKDRTMNATLEDIFWEDGPGGTASQVQQSWDVYDLWANRMSNETAAAIINAANSTGSAAPAAPINMTALGGAKHVYSQVPPSDSKALMGTKVGSVQPSGTVKAFVKAHGVAMLRLRQQSQKKDEL
Km (purified protein): 190 ± 40 µM | kcat (purified protein): 623 s⁻¹ | kcat/Km (purified protein): 3.28e+06 M⁻¹ s⁻¹
